Measured values reported in patent publication US20230190922A1.

Target: human 4-1BB receptor (h4-1-BB) expressed on a genetically engineered Jurkat T cell line (4-1BB Bioassay, Promega) (human) (UniProt Q07011)
Experiment: cell-based or functional assay
Conditions: scale: relative luciferase expression

Chain of human 4-1BB receptor (h4-1-BB) expressed on a genetically engineered Jurkat T cell line (4-1BB Bioassay, Promega) (human) (Q07011 24-255, change not shown): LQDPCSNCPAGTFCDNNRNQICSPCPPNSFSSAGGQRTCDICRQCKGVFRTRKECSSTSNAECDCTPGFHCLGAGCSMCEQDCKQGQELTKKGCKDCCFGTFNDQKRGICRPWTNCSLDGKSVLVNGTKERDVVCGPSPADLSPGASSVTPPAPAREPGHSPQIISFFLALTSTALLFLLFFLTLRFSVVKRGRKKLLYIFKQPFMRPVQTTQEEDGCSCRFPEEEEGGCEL

“His-tagged h4-1BBL cross-linked with an Fc (from UniProt P41273 71-254) (ligand)” showed a luciferase expression by Jurkat-h4-1BB reporter cells (4-1BB Bioassay, Promega), reference value of 1.
